Measured values as given in the supplement of paper PMC10567573.

B1: C19orf51 (parent)
chain: FAPQTGARPSETFARFCKSQESAL

Variants of: B1
Experiment: protein stability index of a GFP-peptide fusion (GPS, HEK-293T) (PSI 1-6); higher = more stable
Conditions: c terminus: a fixed tail appended
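Further: lentivirally expressed fusions sorted by FACS into six bins by GFP to DsRed ratio, PSI derived from sequencing read proportions per bin multiplied by bin number.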

Variant	protein stability index
FAPQTGARPSETFIRFCKSQESAL [A14I]	3.27
FAPQTGARPSETFCRFCKSQESAL [A14C]	1.69
FAPQTGARPSETFYRFCKSQESAL [A14Y]	3.2
FAPQTGARPSETFQRFCKSQESAL [A14Q]	2.63
FAPQTGARPSETFMRFCKSQESAL [A14M]	3.45
FAPQTGARPSETFDRFCKSQESAL [A14D]	1.69
FAPQTGARPSETFNRFCKSQESAL [A14N]	1.44
FAPQTGARPSETFSRFCKSQESAL [A14S]	1.89
FAPRTGARPSETFARFCKSQESAL [Q4R]	1.94
FAPMTGARPSETFARFCKSQESAL [Q4M]	1.65
FAPYTGARPSETFARFCKSQESAL [Q4Y]	2.21
FAPDTGARPSETFARFCKSQESAL [Q4D]	2
FAPITGARPSETFARFCKSQESAL [Q4I]	2.27
FAPETGARPSETFARFCKSQESAL [Q4E]	1.84
FAPQTGARPSETFARFCKSQYSAL [E21Y]	2.22
FAPQTGARPSETFARFCKSQISAL [E21I]	1.97
FAPQTGARPSETFARFCKSQRSAL [E21R]	4.11
FAPQTGARPSETFARFCKSQQSAL [E21Q]	2.79
FAPQTGARPSETFARFCKSQPSAL [E21P]	1.88
FAPQTGARPSETFARFCKSQNSAL [E21N]	1.79
FAPQTGERPSETFARFCKSQESAL [A7E]	1.77
FAPQTGPRPSETFARFCKSQESAL [A7P]	2.07
FAPQTGLRPSETFARFCKSQESAL [A7L]	2
FAPQTGTRPSETFARFCKSQESAL [A7T]	2.69

Variant	protein stability index
FAPQTGQRPSETFARFCKSQESAL [A7Q]	1.31
FAPQTGAVPSETFARFCKSQESAL [R8V]	2.1
FAPQTGAAPSETFARFCKSQESAL [R8A]	2.93
FAPQTGAQPSETFARFCKSQESAL [R8Q]	1.59
FAPQTGAMPSETFARFCKSQESAL [R8M]	1.87
FAPQTGAIPSETFARFCKSQESAL [R8I]	1.71
FAPQTGALPSETFARFCKSQESAL [R8L]	3.45
FAPQTGARPLETFARFCKSQESAL [S10L]	1.58
FAPQTGARPTETFARFCKSQESAL [S10T]	2.25
FAPQTGARPQETFARFCKSQESAL [S10Q]	1.96
FAPQTGARPKETFARFCKSQESAL [S10K]	2.62
FAPQTGARPFETFARFCKSQESAL [S10F]	2.11
FAPQTGARPHETFARFCKSQESAL [S10H]	2.76
TAPQTGARPSETFARFCKSQESAL [F1T]	2.49
KAPQTGARPSETFARFCKSQESAL [F1K]	3.54
DAPQTGARPSETFARFCKSQESAL [F1D]	4.78
CAPQTGARPSETFARFCKSQESAL [F1C]	1.38
VAPQTGARPSETFARFCKSQESAL [F1V]	3.3
IAPQTGARPSETFARFCKSQESAL [F1I]	2.65
SAPQTGARPSETFARFCKSQESAL [F1S]	3.79
PAPQTGARPSETFARFCKSQESAL [F1P]	3.71
NAPQTGARPSETFARFCKSQESAL [F1N]	3.87
FAPQEGARPSETFARFCKSQESAL [T5E]	2.42
FAPQTGARPSETFAFFCKSQESAL [R15F]	1.72

Variant	protein stability index
FAPQTGARPSETFAIFCKSQESAL [R15I]	2.75
FAPQTGARPSETFAAFCKSQESAL [R15A]	2.94
FAPQTGARPSETFAEFCKSQESAL [R15E]	2.65
FAPQTGARPSETFAGFCKSQESAL [R15G]	2.37
FAPQTGARPSETFATFCKSQESAL [R15T]	2.14
FAPQTGARPSETFALFCKSQESAL [R15L]	2.84
FAPQTGARPSETFASFCKSQESAL [R15S]	1.08
FAPQTGARPSETFARFGKSQESAL [C17G]	3.94
FAPQTGARPSETFARFAKSQESAL [C17A]	2.9
FAPQTGARPSETFARFHKSQESAL [C17H]	1.2
FAPQTGARPSETFARFVKSQESAL [C17V]	2.31
FAPQTGARPSETFARFIKSQESAL [C17I]	2.98
FAPQTGARPSETFARFEKSQESAL [C17E]	1.09
FAPQTGARPSETFARFSKSQESAL [C17S]	1.74
FAPQTGARPSETFARDCKSQESAL [F16D]	1.77
FAPQTGARPSETFARLCKSQESAL [F16L]	3.42
FAPQTGARPSETFARACKSQESAL [F16A]	2.44
FAPQTGARPSETFARHCKSQESAL [F16H]	2.07
FAPQTGARPSETFARECKSQESAL [F16E]	1.54
FAPQTGARPSETFARTCKSQESAL [F16T]	2.52
FAPQTGARPSETFARNCKSQESAL [F16N]	1.93
FAPQTGARPSETFARFCKSQESRL [A23R]	3.52
FAPQTGARPSETFARFCKSQESLL [A23L]	2.84
FAPQTGARPSETFARFCKSQESML [A23M]	2.11

Variant	protein stability index
FAPQTGARPSETFARFCKSQESKL [A23K]	1.75
FAPQTGARPSETFARFCKSQESGL [A23G]	2.32
FAPQTGARPSETKARFCKSQESAL [F13K]	2.31
FAPQTGARPSETCARFCKSQESAL [F13C]	3.95
FAPQTGARPSETVARFCKSQESAL [F13V]	2.92
FAPQTGARPSETRARFCKSQESAL [F13R]	1.94
FAPQTGARPSETYARFCKSQESAL [F13Y]	1.49
FAPQTGARPSETAARFCKSQESAL [F13A]	1.89
FAPQTGARPSETMARFCKSQESAL [F13M]	1.92
FAPQTGARPSETEARFCKSQESAL [F13E]	1.98
FAPQTGARPSETSARFCKSQESAL [F13S]	1.41
FAPQTGARPSETDARFCKSQESAL [F13D]	1.86
FAPQTGARPSETNARFCKSQESAL [F13N]	2.49
FAPQTGARESETFARFCKSQESAL [P9E]	1.18
FAPQTGARDSETFARFCKSQESAL [P9D]	1.23
FAPQTGARCSETFARFCKSQESAL [P9C]	3.58
FAPQTGARRSETFARFCKSQESAL [P9R]	2.62
FAPQTGARMSETFARFCKSQESAL [P9M]	2.92
FAPQTGARHSETFARFCKSQESAL [P9H]	2.82
FAPQTGARGSETFARFCKSQESAL [P9G]	2.57
FAPQTGARKSETFARFCKSQESAL [P9K]	2.47
FAPQTGARQSETFARFCKSQESAL [P9Q]	2.77
